Test results from patent publication US20180155451A1 (published 2018).

Legend:
Assay in all cases: SPR (Biacore); KD of H240-Kn061/H240-Hl071/L73-k0 divided by KD of the variant
FcgRIIIa V = target: T1, FcgRIIIa V (human, UniProt P08637 17-208)
T1 construct: extracellular domain; also called FcγRIIIa V; not shown: His tag attached to the C terminus
Experimental: (§1) The antibodies were assessed for the binding to each FcgR. […] The resultant value was defined as relative KD, and used as an assessment indicator.
(§2) Analysis of interaction between obj ective antibody and the FcγR was carried out using Biacore T100 (GE Healthcare), Biacore T200, Biacore A100, and Biacore 4000. HBS-EP+ (GE Healthcare) was used as the running buffer, and the measurement temperature was set to 25° C. Chips produced by immobilizing the antigen peptide by the amine coupling method to a Series S sensor Chip CM5 (GE Healthcare), chips produced by allowing preliminarily biotinylated antigen peptides to interact with and immobilize onto a Series S Sensor Chip SA (certified) (GE Healthcare), chips produced by immobilizing Protein L (ACTIGEN, BioVision) to Series S Sencor Chip CM5 (GE Healthcare), or chips produced by immobilizing Protein A/G (Thermo Scientific) to Series S Sencor Chip CM5 (GE Healthcare) were used. Antibodies of interest were captured onto these chips, and allowed to interact to each FcγR diluted with running buffer.

FcgRIIa R = target: T2, FcgRIIa R (human, UniProt P12318 34-217)
T2 construct: extracellular domain; also called FcγRIIa R; FcγRIIa type R; not shown: His tag attached to the C terminus
T2 sequence (looked up): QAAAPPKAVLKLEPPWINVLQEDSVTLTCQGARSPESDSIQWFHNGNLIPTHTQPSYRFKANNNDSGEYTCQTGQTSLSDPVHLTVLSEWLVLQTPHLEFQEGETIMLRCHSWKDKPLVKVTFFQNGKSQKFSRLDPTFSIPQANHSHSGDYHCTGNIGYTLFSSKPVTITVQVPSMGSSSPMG
Experimental: as §1, §2

FcgRIIb = target: T3, FcgRIIb (human, UniProt P31994 43-217)
T3 construct: extracellular domain; also called FcγRIIb; not shown: His tag attached to the C terminus
T3 sequence (looked up): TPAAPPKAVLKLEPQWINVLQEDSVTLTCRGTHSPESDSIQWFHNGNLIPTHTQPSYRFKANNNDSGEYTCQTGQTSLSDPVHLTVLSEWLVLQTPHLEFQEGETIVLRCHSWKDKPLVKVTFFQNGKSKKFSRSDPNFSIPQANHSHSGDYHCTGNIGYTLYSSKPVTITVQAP
Experimental: as §1, §2

FcgRIIIa F = target: T4, FcgRIIIa F (human, UniProt P08637 17-208)
T4 construct: extracellular domain; also called FcγRIIIa F; 3aF; not shown: His tag attached to the C terminus
Experimental: as §1, §2

FcgRIIa H = target: T5, FcgRIIa H (human, UniProt P12318 34-217)
T5 construct: extracellular domain; also called FcγRIIa H; FcγRIIa type H; not shown: His tag attached to the C terminus
T5 sequence (looked up): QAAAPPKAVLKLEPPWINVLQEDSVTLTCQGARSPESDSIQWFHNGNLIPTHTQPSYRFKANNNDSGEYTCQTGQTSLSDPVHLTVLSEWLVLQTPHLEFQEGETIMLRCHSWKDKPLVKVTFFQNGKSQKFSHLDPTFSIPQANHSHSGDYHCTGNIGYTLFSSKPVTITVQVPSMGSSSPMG
Experimental: as §1, §2

T1 sequence (P08637 17-208 F176V limits assumed): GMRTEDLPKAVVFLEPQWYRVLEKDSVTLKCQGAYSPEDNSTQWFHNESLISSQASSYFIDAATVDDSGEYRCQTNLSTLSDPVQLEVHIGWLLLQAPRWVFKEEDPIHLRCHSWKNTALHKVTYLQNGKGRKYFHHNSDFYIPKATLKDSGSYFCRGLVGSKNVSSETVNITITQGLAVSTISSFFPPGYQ
T4 sequence (P08637 17-208): as the sequence (P08637 17-208 F176V limits assumed) above, with V160F counted along it

B1: H240-Kn061 (S239V)/H240-Hl071/L73-k0 (antibody, human IgG1, kappa)
heavy 1: QDQLVQSGAEVKKPGASVKVSCKASGFNIKDTYIQWVRQAPGQGLEWMGRIDPLRKQTKYREKFEGRVTITADTSTNTAYMELSSLRSEDTAVYYCVRSGREFDYWGQGTLVTVSSASTKGPSVFPLAPSSKSTSGGTAALGCLVKDYFPEPVTVSWNSGALTSGVHTFPAVLQSSGLYSLSSVVTVPSSSLGTQTYICNVNHKPSNTKVDKKVEPKSCDKTHTCPPCPAPEYYWGPVVFLFPPKPKDTLMISRTPEVTCVVVDVSDEDPEVKFNWYVDGVEVHNAKTKPREEQYNATYRVVSVLTVLHQDWLNGKEYKCKVSNKALPAPIEKTISKAKGQPREPQVCTLPPSRDELTKNQVSLWCLVKGFYPSDIAVEWESNGQPENNYKTTPPVLDSDGSFFLYSKLTVDKSRWQQGNVFSCSVMHEALHNHYTQKSLSLSP
heavy 2: QDQLVQSGAEVKKPGASVKVSCKASGFNIKDTYIQWVRQAPGQGLEWMGRIDPLRKQTKYREKFEGRVTITADTSTNTAYMELSSLRSEDTAVYYCVRSGREFDYWGQGTLVTVSSASTKGPSVFPLAPSSKSTSGGTAALGCLVKDYFPEPVTVSWNSGALTSGVHTFPAVLQSSGLYSLSSVVTVPSSSLGTQTYICNVNHKPSNTKVDKKVEPKSCDKTHTCPPCPAPELLGGPSVFLFPPKPKDTLMISRTPEVTCVVVDVSHEDPEVKFNWYVDGVEVHNAKTKPREEQYNSTYRVVSVLTVLHQDWLNGKEYKCKVSNDALPMPIEETISKAKGQPREPQVYTLPPSRCELTKNQVSLSCAVKGFYPSDIAVEWESNGQPENNYKTTPPVLDSDGSFFLVSKLTVDKSRWQQGNVFSCSVMHEALHNHYTQKSLSLSP
light: DIQMTQSPSSLSASVGDRVTITCRASQDIHKYIAWYQQKPGQAPRLLIQYTSTLQPGVPSRFSGSGSGTDYTFTISSLQPEDIATYYCLQYEQLRTFGGGTKVEIKRTVAAPSVFIFPPSDEQLKSGTASVVCLLNNFYPREAKVQWKVDNALQSGNSQESVTEQDSKDSTYSLSSTLTLSKADYEKHKVYACEVTHQGLSSPVTKSFNRGEC
Relative KD (FcgRIIIa V): 2.9 | Relative KD (FcgRIIa R): 4.2 | Relative KD (FcgRIIb): 3.4 | Relative KD (FcgRIIIa F): 2.4 | Relative KD (FcgRIIa H): 2.4

B2: H240-Kn061/H240-Hl071 (F241N)/L73-k0 (antibody, human IgG1, kappa)
heavy 1: QDQLVQSGAEVKKPGASVKVSCKASGFNIKDTYIQWVRQAPGQGLEWMGRIDPLRKQTKYREKFEGRVTITADTSTNTAYMELSSLRSEDTAVYYCVRSGREFDYWGQGTLVTVSSASTKGPSVFPLAPSSKSTSGGTAALGCLVKDYFPEPVTVSWNSGALTSGVHTFPAVLQSSGLYSLSSVVTVPSSSLGTQTYICNVNHKPSNTKVDKKVEPKSCDKTHTCPPCPAPEYYWGPSVFLFPPKPKDTLMISRTPEVTCVVVDVSDEDPEVKFNWYVDGVEVHNAKTKPREEQYNATYRVVSVLTVLHQDWLNGKEYKCKVSNKALPAPIEKTISKAKGQPREPQVCTLPPSRDELTKNQVSLWCLVKGFYPSDIAVEWESNGQPENNYKTTPPVLDSDGSFFLYSKLTVDKSRWQQGNVFSCSVMHEALHNHYTQKSLSLSP
heavy 2: QDQLVQSGAEVKKPGASVKVSCKASGFNIKDTYIQWVRQAPGQGLEWMGRIDPLRKQTKYREKFEGRVTITADTSTNTAYMELSSLRSEDTAVYYCVRSGREFDYWGQGTLVTVSSASTKGPSVFPLAPSSKSTSGGTAALGCLVKDYFPEPVTVSWNSGALTSGVHTFPAVLQSSGLYSLSSVVTVPSSSLGTQTYICNVNHKPSNTKVDKKVEPKSCDKTHTCPPCPAPELLGGPSVNLFPPKPKDTLMISRTPEVTCVVVDVSHEDPEVKFNWYVDGVEVHNAKTKPREEQYNSTYRVVSVLTVLHQDWLNGKEYKCKVSNDALPMPIEETISKAKGQPREPQVYTLPPSRCELTKNQVSLSCAVKGFYPSDIAVEWESNGQPENNYKTTPPVLDSDGSFFLVSKLTVDKSRWQQGNVFSCSVMHEALHNHYTQKSLSLSP
light: DIQMTQSPSSLSASVGDRVTITCRASQDIHKYIAWYQQKPGQAPRLLIQYTSTLQPGVPSRFSGSGSGTDYTFTISSLQPEDIATYYCLQYEQLRTFGGGTKVEIKRTVAAPSVFIFPPSDEQLKSGTASVVCLLNNFYPREAKVQWKVDNALQSGNSQESVTEQDSKDSTYSLSSTLTLSKADYEKHKVYACEVTHQGLSSPVTKSFNRGEC
Relative KD (FcgRIIIa V): 0.7 | Relative KD (FcgRIIa R): 3.8 | Relative KD (FcgRIIb): 1.1 | Relative KD (FcgRIIIa F): 0.8 | Relative KD (FcgRIIa H): 3.5

B3: H240-Kn061 (Y234I)/H240-Hl071/L73-k0 (antibody, human IgG1, kappa)
heavy 1: QDQLVQSGAEVKKPGASVKVSCKASGFNIKDTYIQWVRQAPGQGLEWMGRIDPLRKQTKYREKFEGRVTITADTSTNTAYMELSSLRSEDTAVYYCVRSGREFDYWGQGTLVTVSSASTKGPSVFPLAPSSKSTSGGTAALGCLVKDYFPEPVTVSWNSGALTSGVHTFPAVLQSSGLYSLSSVVTVPSSSLGTQTYICNVNHKPSNTKVDKKVEPKSCDKTHTCPPCPAPEIYWGPSVFLFPPKPKDTLMISRTPEVTCVVVDVSDEDPEVKFNWYVDGVEVHNAKTKPREEQYNATYRVVSVLTVLHQDWLNGKEYKCKVSNKALPAPIEKTISKAKGQPREPQVCTLPPSRDELTKNQVSLWCLVKGFYPSDIAVEWESNGQPENNYKTTPPVLDSDGSFFLYSKLTVDKSRWQQGNVFSCSVMHEALHNHYTQKSLSLSP
heavy 2: QDQLVQSGAEVKKPGASVKVSCKASGFNIKDTYIQWVRQAPGQGLEWMGRIDPLRKQTKYREKFEGRVTITADTSTNTAYMELSSLRSEDTAVYYCVRSGREFDYWGQGTLVTVSSASTKGPSVFPLAPSSKSTSGGTAALGCLVKDYFPEPVTVSWNSGALTSGVHTFPAVLQSSGLYSLSSVVTVPSSSLGTQTYICNVNHKPSNTKVDKKVEPKSCDKTHTCPPCPAPELLGGPSVFLFPPKPKDTLMISRTPEVTCVVVDVSHEDPEVKFNWYVDGVEVHNAKTKPREEQYNSTYRVVSVLTVLHQDWLNGKEYKCKVSNDALPMPIEETISKAKGQPREPQVYTLPPSRCELTKNQVSLSCAVKGFYPSDIAVEWESNGQPENNYKTTPPVLDSDGSFFLVSKLTVDKSRWQQGNVFSCSVMHEALHNHYTQKSLSLSP
light: DIQMTQSPSSLSASVGDRVTITCRASQDIHKYIAWYQQKPGQAPRLLIQYTSTLQPGVPSRFSGSGSGTDYTFTISSLQPEDIATYYCLQYEQLRTFGGGTKVEIKRTVAAPSVFIFPPSDEQLKSGTASVVCLLNNFYPREAKVQWKVDNALQSGNSQESVTEQDSKDSTYSLSSTLTLSKADYEKHKVYACEVTHQGLSSPVTKSFNRGEC
Relative KD (FcgRIIIa V): 1.3 | Relative KD (FcgRIIa R): 4.1 | Relative KD (FcgRIIb): 7.7 | Relative KD (FcgRIIIa F): 1.2 | Relative KD (FcgRIIa H): 2.6

B4: H240-Kn061 (Y234L)/H240-Hl071/L73-k0 (antibody, human IgG1, kappa)
heavy 1: QDQLVQSGAEVKKPGASVKVSCKASGFNIKDTYIQWVRQAPGQGLEWMGRIDPLRKQTKYREKFEGRVTITADTSTNTAYMELSSLRSEDTAVYYCVRSGREFDYWGQGTLVTVSSASTKGPSVFPLAPSSKSTSGGTAALGCLVKDYFPEPVTVSWNSGALTSGVHTFPAVLQSSGLYSLSSVVTVPSSSLGTQTYICNVNHKPSNTKVDKKVEPKSCDKTHTCPPCPAPELYWGPSVFLFPPKPKDTLMISRTPEVTCVVVDVSDEDPEVKFNWYVDGVEVHNAKTKPREEQYNATYRVVSVLTVLHQDWLNGKEYKCKVSNKALPAPIEKTISKAKGQPREPQVCTLPPSRDELTKNQVSLWCLVKGFYPSDIAVEWESNGQPENNYKTTPPVLDSDGSFFLYSKLTVDKSRWQQGNVFSCSVMHEALHNHYTQKSLSLSP
heavy 2: QDQLVQSGAEVKKPGASVKVSCKASGFNIKDTYIQWVRQAPGQGLEWMGRIDPLRKQTKYREKFEGRVTITADTSTNTAYMELSSLRSEDTAVYYCVRSGREFDYWGQGTLVTVSSASTKGPSVFPLAPSSKSTSGGTAALGCLVKDYFPEPVTVSWNSGALTSGVHTFPAVLQSSGLYSLSSVVTVPSSSLGTQTYICNVNHKPSNTKVDKKVEPKSCDKTHTCPPCPAPELLGGPSVFLFPPKPKDTLMISRTPEVTCVVVDVSHEDPEVKFNWYVDGVEVHNAKTKPREEQYNSTYRVVSVLTVLHQDWLNGKEYKCKVSNDALPMPIEETISKAKGQPREPQVYTLPPSRCELTKNQVSLSCAVKGFYPSDIAVEWESNGQPENNYKTTPPVLDSDGSFFLVSKLTVDKSRWQQGNVFSCSVMHEALHNHYTQKSLSLSP
light: DIQMTQSPSSLSASVGDRVTITCRASQDIHKYIAWYQQKPGQAPRLLIQYTSTLQPGVPSRFSGSGSGTDYTFTISSLQPEDIATYYCLQYEQLRTFGGGTKVEIKRTVAAPSVFIFPPSDEQLKSGTASVVCLLNNFYPREAKVQWKVDNALQSGNSQESVTEQDSKDSTYSLSSTLTLSKADYEKHKVYACEVTHQGLSSPVTKSFNRGEC
Relative KD (FcgRIIIa V): 1.2 | Relative KD (FcgRIIa R): 2.2 | Relative KD (FcgRIIb): 3.5 | Relative KD (FcgRIIIa F): 1.1 | Relative KD (FcgRIIa H): 1.5
